Test results from patent US20210009657A1 (THEACHON, published 2021).

B1: FLAG-sFGFR3_Del4 (receptor)
chain: DYKDDDDKMGAPACALALCVAVAIVAGASSESLGTEQRVVGRAAEVPGPEPGQQEQLVFGSGDAVELSCPPPGGGPMGPTVWVKDGTGLVPSERVLVGPQRLQVLNASHEDSGAYSCRQRLTQRVLCHFSVRVTDAPSSGDDEDGEDEAEDTGVDTGAPYWTRPERMDKKLLAVPAANTVRFRCPAAGNPTPSISWLKNGREFRGEHRIGGIKLRHQQWSLVMESVVPSDRGNYTCVVENKFGSIRQTYTLDVLERSPHRPILQAGLPANQTAVLGSDVEFHCKVYSDAQPHIQWLKHVEVNGSKVGPDGTPYVTVLKVSLESNASMSSNT
notes: Obtained by site directed mutagenesis of sFGFR3-pFLAG-CMV3 and made in HEK 293 cells; also called Del4 variant
B2: FLAG-sFGFR3_Del4-LK1-LK2 (other)
chain: DYKDDDDKLVDQIPAMGAPACALALCVAVAIVAGASSESLGTEQRVVGRAAEVPGPEPGQQEQLVFGSGDAVELSCPPPGGGPMGPTVWVKDGTGLVPSERVLVGPQRLQVLNASHEDSGAYSCRQRLTQRVLCHFSVRVTDAPSSGDDEDGEDEAEDTGVDTGAPYWTRPERMDKKLLAVPAANTVRFRCPAAGNPTPSISWLKNGREFRGEHRIGGIKLRHQQWSLVMESVVPSDRGNYTCVVENKFGSIRQTYTLDVLERSPHRPILQAGLPANQTAVLGSDVEFHCKVYSDAQPHIQWLKHVEVNGSKVGPDGTPYVTVLKVSLESNASMSSNTSGSGSGSGSGSGSGSVVFPYFPRLGRYNLNFHEAQQACLDQDAVIASFDQLYDAWRGGLDWCNAGWLSDGSVQYPITKPREPCGGQNTVPGVRNYGFWDKDKSRYDVFCFTSNFNGRFYYLIHPTKLTYDEAVQACLNDGAQIAKVGQIFAAWKILGYDRCDAGWLADGSVRYPISRPRRRCSPTEAAVRFVGFPDKKHKLYGVYCFRAYN
notes: Fusion of a soluble FGFR3 fragment with the LK1 and LK2 link domains of human HPLN1; Made in HEK 293 cells; also called FP; fusion protein

How the values were obtained:
[1] = target: T1, Aggrecan (R&D systems #1220-PG-025) (UniProt P16112 20-675); experiment: ELISA, aggrecan coated on plate, detection with anti-FGFR3 antibody
T1 construct: Coated on the ELISA plate at 10 ug/mL
T1 sequence (P16112 20-675 limits assumed): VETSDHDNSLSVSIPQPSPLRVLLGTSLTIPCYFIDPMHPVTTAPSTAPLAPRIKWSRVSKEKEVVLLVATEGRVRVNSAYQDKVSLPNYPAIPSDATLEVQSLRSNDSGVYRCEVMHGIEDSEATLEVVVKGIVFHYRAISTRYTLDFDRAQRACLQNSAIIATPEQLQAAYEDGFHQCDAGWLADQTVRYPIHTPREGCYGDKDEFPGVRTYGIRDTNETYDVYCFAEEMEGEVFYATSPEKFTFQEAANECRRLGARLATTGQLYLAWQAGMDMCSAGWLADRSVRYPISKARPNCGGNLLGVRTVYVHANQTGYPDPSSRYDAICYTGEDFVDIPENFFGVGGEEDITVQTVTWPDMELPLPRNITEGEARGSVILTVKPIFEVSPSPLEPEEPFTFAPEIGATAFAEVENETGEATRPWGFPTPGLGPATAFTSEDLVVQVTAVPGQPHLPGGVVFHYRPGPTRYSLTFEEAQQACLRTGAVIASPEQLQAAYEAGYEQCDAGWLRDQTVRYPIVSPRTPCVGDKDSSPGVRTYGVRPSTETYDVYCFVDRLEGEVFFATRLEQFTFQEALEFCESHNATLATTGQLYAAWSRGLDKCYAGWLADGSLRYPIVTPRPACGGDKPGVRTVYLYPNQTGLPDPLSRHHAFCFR
Protocol: ELISA plate were coated with 10 μg/mL of Aggrecan (R&D systems #1220-PG-025) in a final volume of 50μI per well and incubated overnight at room temperature. Plate were blocked with 300μI of PBS 1% BSA per well during 1 h at room temperature. Different amount of protein (0 to 100 µl ) were incubated for 1 h at room temperature. Specific detection antibody against FGFR3 from an R&D system ELISA kit (#DYC766E) was used to detect recombinant protein fixed to aggrecan as recommended by the manufacturer.

human FGF2 = target: T2, human FGF2 (human, UniProt P09038 143-288); experiment: fixed FGF2 incubated with increasing decoy, unbound FGF2 by ELISA
T2 construct: also called hFGF2; Fibroblast Growth Factor 2
T2 sequence (P09038 143-288 limits assumed): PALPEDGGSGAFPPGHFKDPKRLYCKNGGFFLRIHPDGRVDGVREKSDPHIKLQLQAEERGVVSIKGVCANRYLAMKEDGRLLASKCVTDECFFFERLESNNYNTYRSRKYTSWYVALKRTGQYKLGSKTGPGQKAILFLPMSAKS
Protocol: Fixed amounts of human FGF2, or human FGF9 (R&D Systems) were incubated for 2 h at 37° C. with increasing doses of each recombinant protein (0 to 250 ng/ml) in PBS 1% BSA. Specific commercial ELISA kits (R&D Systems; Clinisciences) were used to quantify remaining unbound FGFs. 1000 pg/ml or 1200 pg/ml were used for FGF2 and FGF9 respectively based on the sensitivity of the corresponding ELISA kits.

| Binder | binding result [1] | binding result (human FGF2) |
| --- | --- | --- |
| B1 | no binding |  |
| B2 |  | binds |
